Reference: PMC4239610, “A Peptide Derived from G0/G1 Switch Gene 2 Acts as Noncompetitive Inhibitor of Adipose Triglyceride Lipase” (The Journal of Biological Chemistry, 2014)

Target: T1, murine adipose triglyceride lipase, Strep fusion (Strep-mATGL) (mouse) (UniProt Q8BJ56)
T1 sequence: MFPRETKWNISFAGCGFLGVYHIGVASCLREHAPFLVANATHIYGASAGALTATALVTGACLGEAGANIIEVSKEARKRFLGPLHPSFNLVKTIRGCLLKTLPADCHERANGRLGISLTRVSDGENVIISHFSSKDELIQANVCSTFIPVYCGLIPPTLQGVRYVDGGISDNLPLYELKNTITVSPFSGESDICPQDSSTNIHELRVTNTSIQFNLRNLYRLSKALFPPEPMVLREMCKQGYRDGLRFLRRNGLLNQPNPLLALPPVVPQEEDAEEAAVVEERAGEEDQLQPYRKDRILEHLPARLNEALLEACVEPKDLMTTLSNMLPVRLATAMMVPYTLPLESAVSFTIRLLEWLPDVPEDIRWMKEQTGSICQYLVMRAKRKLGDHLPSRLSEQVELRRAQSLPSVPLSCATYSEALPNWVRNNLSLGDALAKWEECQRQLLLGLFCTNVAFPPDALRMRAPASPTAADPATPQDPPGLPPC

IC50 of inhibition of CGI-58-stimulated mATGL TG hydrolase activity, dose-response with full-length hG0S2: 19 nM
B1: human G0/G1 switch gene 2 protein, full length (hG0S2) (natural protein)
chain: METVQELIPLAKEMMAQKRKGKMVKLYVLGSVLALFGVVLGLMETVCSPFTAARRLRDQEAAVAELQAALERQALQKQALQEKGKQQDTVLGGRALSNRQHAS
